The values below come from US20020192780.

The target in data set [1] is PLA2 (Bovine pancreas, EC 3.1.1.4, Sigma), P00593.
For another data set, the target named is T1, SEQ ID NO:1 (KVLDPVKG).
T1 chain: KVLDPVKG

A further data set deals with T2, SEQ ID NO:2 (KVLDGQDP).
T2 chain: KVLDGQDP

Chain of PLA2 (Bovine pancreas, EC 3.1.1.4, Sigma), P00593 (P00593 23-145): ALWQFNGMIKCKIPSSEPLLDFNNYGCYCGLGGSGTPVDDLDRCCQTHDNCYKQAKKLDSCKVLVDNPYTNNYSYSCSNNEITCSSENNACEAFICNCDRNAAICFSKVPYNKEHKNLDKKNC

B1: TGase (Guinea pig liver, EC 2.3.2.13, Sigma) (protein)
chain: AEDLILERCDLQLEVNGRDHRTADLCRERLVLRRGQPFWLTLHFEGRGYEAGVDTLTFNAVTGPDPSEEAGTMARFSLSSAVEGGTWSASAVDQQDSTVSLLLSTPADAPIGLYRLSLEASTGYQGSSFVLGHFILLYNPRCPADAVYMDSDQERQEYVLTQQGFIYQGSAKFINGIPWNFGQFEDGILDICLMLLDTNPKFLKNAGQDCSRRSRPVYVGRVVSAMVNCNDDQGVLQGRWDNNYSDGVSPMSWIGSVDILRRWKDYGCQRVKYGQCWVFAAVACTVLRCLGIPTRVVTNFNSAHDQNSNLLIEYFRNESGEIEGNKSEMIWNFHCWVESWMTRPDLEPGYEGWQALDPTPQEKSEGTYCCGPVPVRAIKEGHLNVKYDAPFVFAEVNADVVNWIRQKDGSLRKSINHLVVGLKISTKSVGRDEREDITHTYKYPEGSEEEREAFVRANHLNKLATKEEAQEETGVAMRIRVGQNMTMGSDFDIFAYITNGTAESHECQLLLCARIVSYNGVLGPVCSTNDLLNLTLDPFSENSIPLHILYEKYGDYLTESNLIKVRGLLIEPAANSYVLAERDIYLENPEIKIRVLGEPKQNRKLIAEVSLKNPLPVPLLGCIFTVEGAGLTKDQKSVEVPDPVEAGEQAKVRVDLLPTEVGLHKLVVNFECDKLKAVKGYRNVIIGPA
On to B1, for which, in data set [1], the PLA2 activity entry was “PLA2 activity was increased about 2-fold after TGase 2 treatment”. For the same protein, the “TGase activity (incorporation of 14C-putrescine into succinylated casein), peptide 1x10^-8 M preincubated with the enzyme” value with SEQ ID NO:1 (KVLDPVKG) is “significantly reduced the PLA2 and TGase activities”; with SEQ ID NO:2 (KVLDGQDP) it was “significantly reduced the PLA2 and TGase activities”.
